Bridges are numbered along the chain shown (N, C = ends). [ ]: non-standard residue; d: D form. R8 = C=CCCCCCC[C@@](C)(N)C(=O)O; S5 = C=CCCC[C@](C)(N)C(=O)O; Ahx = NCCCCCC(=O)O
B1: YS-07 (capped), Ac-KK-Ahx-TSFX8EYWALLS5ENF-NH2 (peptide)
peptide: Ac-KK[Ahx]TSF[R8]EYWALL[S5]ENF-NH2
modifications: staple 7-14
B2: sMTide-02 (capped), Ac-TSFX8EYWALLS5-NH2 (peptide)
peptide: Ac-TSF[R8]EYWALL[S5]-NH2
modifications: staple 4-11

What was measured:
Mdm2 (1-125) = biological target: T1, Mdm2 (1-125) (UniProt Q00987 1-125); test: competitive fluorescence anisotropy, displacement of FAM-labelled 12-1 peptide from Mdm2 (1-125); apparent Kd
T1 construct: range 1-125; also called N-terminal domain of Mdm2; Mdm2 (1 to 125)
T1 sequence (Q00987 1-125 limits assumed): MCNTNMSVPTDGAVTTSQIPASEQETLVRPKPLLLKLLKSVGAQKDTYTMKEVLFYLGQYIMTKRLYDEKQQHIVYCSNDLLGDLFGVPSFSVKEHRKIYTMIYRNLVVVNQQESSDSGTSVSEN
Procedure: All titrations were carried out in triplicate.

Mdm2 in murine T22 cells = Mdm2 in murine T22 cells (murine, UniProt P23804 1-489, limits assumed); test: cell-based or functional assay
Chain of Mdm2 in murine T22 cells (P23804 whole entry): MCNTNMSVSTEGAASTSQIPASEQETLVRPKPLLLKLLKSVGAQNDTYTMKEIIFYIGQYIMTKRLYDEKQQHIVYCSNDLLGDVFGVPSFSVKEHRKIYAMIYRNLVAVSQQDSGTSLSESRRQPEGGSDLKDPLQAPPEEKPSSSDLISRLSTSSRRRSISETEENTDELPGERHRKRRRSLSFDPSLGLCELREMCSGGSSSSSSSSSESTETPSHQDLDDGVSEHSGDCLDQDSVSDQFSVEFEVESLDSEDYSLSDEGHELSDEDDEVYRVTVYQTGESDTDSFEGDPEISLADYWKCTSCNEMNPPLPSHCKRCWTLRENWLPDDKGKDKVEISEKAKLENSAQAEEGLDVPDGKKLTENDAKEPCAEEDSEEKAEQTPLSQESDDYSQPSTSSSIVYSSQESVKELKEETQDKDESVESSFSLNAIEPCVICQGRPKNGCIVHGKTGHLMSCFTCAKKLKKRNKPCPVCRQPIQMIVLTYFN

Row | Binder | Kd (Mdm2 (1-125)) [nM] | T22 IC50 (0% µM), T22 p53 reporter assay without serum (Mdm2 in murine T22 cells) [µM] | T22 Ic50 (10% µM), T22 p53 reporter assay with 10% fetal calf serum (Mdm2 in murine T22 cells) [µM]
1 | B1 | 24.4 | ~0.78 | 9.95
2 | B2 | – | 2.75 | 17.9
